The values that follow come from paper PMC11480323.

This experiment deals with Cas7 of the type I-F Cas8-HNH system from Selenomonas sp. isolate RGIG9219 (Selenomonas sp. isolate RGIG9219). Kind of experiment: cryo-EM structure; Cas8-HNH Cascade-crRNA ribonucleoprotein complex in the target-free state, 3.6 Å; subunits co-expressed in E. coli with crRNA and purified as one complex.

For orientation: stoichiometry N means a count of units in the complex or per binding partner. In turn, “Cas7 of the type I-F Cas8-HNH system from Selenomonas sp. isolate RGIG9219 (natural protein)” registered a stoichiometry N of 6.
